From publication PMC3436766, “Distinct and Contrasting Transcription Initiation Patterns at Mycobacterium tuberculosis Promoters” come the findings set out here.

In data set [1] the target is T1, RNA polymerase holoenzyme with sigma A (RNAP-σA) (Mycobacterium smegmatis SM07, UniProt A0QSL8;P60281;A0QS66;A0QWT1;A0QW02 1-350;1-1169;1-1317;1-107;1-466). Briefly: EMSA; closed complex (KB), on ice 20 min. The note with it: protein: native; chain copies: 2;1;1;1;1; label: 5'-32P on one strand; blunt. (In EMSA bound probe runs differently from free probe, usually more slowly.)

For data set [2], the target named is T1, RNA polymerase holoenzyme with sigma A …. Put plainly: EMSA. Particulars: protein: native; chain copies: 2;1;1;1;1; label: 5'-32P on one strand; blunt.

B1: PgyrB1 (dsDNA)
DNA 1: GGTAAAAACGAGGCCGAGCACTCGGCCCTGGCGCCCGATCACGGTACAGTGGTGTGCGACCCCCTGCGGCGACTC
DNA 2: GAGTCGCCGCAGGGGGTCGCACACCACTGTACCGTGATCGGGCGCCAGGGCCGAGTGCTCGGCCTCGTTTTTACC
Turning to B1, the Ka in data set [1] was 2.1 ± 0.03 10^7 M^-1. In data set [2], the Kd was 68 ± 12.2 x 10^7 M (as printed; exponent implausible, probably nM).
